Results published in US20220380445A1 (Ablynx, published 2022).
Substitutions are numbered along the chain they refer to. Names and notes keep the numbering of the source.

B1: Reference A+L11V+S31D+V89L+C-terminal alanine, N-terminal HIS6 tag (VHH)
VHH: EVQLVESGGGVVQPGGSLRLSCAASGFTFRDFGMSWVRQAPGKGPEWVSSISGSGSDTLYADSVKGRFTISRDNSKNTLYLQMNSLRPEDTALYYCTIGGSLSRSSQGTLVTVSS
B2: Reference A+L11V+V89S+C-terminal alanine, N-terminal HIS6 tag (VHH)
VHH: B1 VHH with D31S, L93S
B3: Reference A+L11V+R30T+V89L+C-terminal alanine, N-terminal HIS6 tag (VHH)
VHH: B1 VHH with R30T, D31S
B4: Reference A+L11V+V89L+S101E+C-terminal alanine, N-terminal HIS6 tag (VHH)
VHH: B1 VHH with D31S, S103E
B5: Reference A+L11V+V89L+S104A+C-terminal alanine, N-terminal HIS6 tag (VHH)
VHH: B1 VHH with D31S, S106A
B6: Reference A+L11V+V89L+S101G+C-terminal alanine, N-terminal HIS6 tag (VHH)
VHH: B1 VHH with D31S, S103G
B7: SEQ ID NO 10 (VHH)
VHH: B1 VHH with D31S
notes: also called R at position 30
B8: SEQ ID NO 145 (VHH)
VHH: B1 VHH with E1D, R30T, D31S, L93A, S106G
notes: also called T at position 30
B9: SEQ ID NO 129 (VHH)
VHH: B1 VHH with E1D, R30T, D31S, L93T, S106G
notes: also called T at position 30
B10: SEQ ID NO 127 (VHH)
VHH: B1 VHH with E1D, R30T, D31S, S106G
notes: also called T at position 30
B11: Reference A+L11V+V89T+C-terminal alanine, N-terminal HIS6 tag (VHH)
VHH: B1 VHH with D31S, L93T
B12: Reference A+L11V+V89T+S104T+C-terminal alanine, N-terminal HIS6 tag (VHH)
VHH: B1 VHH with D31S, L93T, S106T
B13: Reference A+L11V+V89T+T110K+C-terminal alanine, N-terminal HIS6 tag (VHH)
VHH: HHHHHHEVQLVESGGGVVQPGGSLRLSCAASGFTFRSFGMSWVRQAPGKGPEWVSSISGSGSDTLYADSVKGRFTISRDNSKNTLYLQMNSLRPEDTATYYCTIGGSLSRSSQGTLVKVSSA
B14: Reference A+L11V+V89N+C-terminal alanine, N-terminal HIS6 tag (VHH)
VHH: B1 VHH with D31S, L93N
B15: Reference A+L11V+V89N+T110K+C-terminal alanine, N-terminal HIS6 tag (VHH)
VHH: B13 VHH with T99N
B16: Reference A+L11V+V89S+T110K+C-terminal alanine, N-terminal HIS6 tag (VHH)
VHH: B13 VHH with T99S
B17: Reference A+L11V+V89L+S104G+C-terminal alanine, N-terminal HIS6 tag (VHH)
VHH: B1 VHH with D31S, S106G
B18: Reference A+L11V+V89A+T110K+C-terminal alanine, N-terminal HIS6 tag (VHH)
VHH: B13 VHH with T99A
B19: Reference A+L11V+V89A+C-terminal alanine, N-terminal HIS6 tag (VHH)
VHH: B1 VHH with D31S, L93A
B20: Reference A+L11V+V89L+R102D+C-terminal alanine, N-terminal HIS6 tag (VHH)
VHH: B1 VHH with D31S, R104D
B21: Reference A+L11V+V89L+S101H+C-terminal alanine, N-terminal HIS6 tag (VHH)
VHH: B1 VHH with D31S, S103H

target: T1, human serum albumin (human, UniProt P02768 25-609); experiment: ProteOn SPR; Nanobody on immobilized human serum albumin; Langmuir simultaneous ka/kd fit
T1 construct: Amine-coupled to the chip (EDC/NHS); also called HSA
T1 sequence (P02768 25-609 limits assumed): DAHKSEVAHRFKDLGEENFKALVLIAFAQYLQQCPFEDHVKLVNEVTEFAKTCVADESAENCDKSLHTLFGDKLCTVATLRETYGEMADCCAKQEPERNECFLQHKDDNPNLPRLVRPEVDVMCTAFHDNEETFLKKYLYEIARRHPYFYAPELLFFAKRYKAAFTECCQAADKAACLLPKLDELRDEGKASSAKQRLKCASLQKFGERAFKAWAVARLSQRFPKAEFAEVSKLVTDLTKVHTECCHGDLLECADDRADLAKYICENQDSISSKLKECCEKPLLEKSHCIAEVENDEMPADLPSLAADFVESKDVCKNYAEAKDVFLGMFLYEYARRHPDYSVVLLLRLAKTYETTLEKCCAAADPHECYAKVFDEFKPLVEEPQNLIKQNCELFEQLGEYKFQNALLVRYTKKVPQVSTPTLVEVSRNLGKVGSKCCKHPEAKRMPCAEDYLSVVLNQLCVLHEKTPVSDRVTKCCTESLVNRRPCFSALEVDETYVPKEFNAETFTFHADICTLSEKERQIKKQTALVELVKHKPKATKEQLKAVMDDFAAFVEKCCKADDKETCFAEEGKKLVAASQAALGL
Procedure: (§1) PBS/Tween (phosphate buffered saline, pH7.4, 0.005% Tween20) was used as running buffer and the experiments were performed at 25° C. […] After immobilization, surfaces were deactivated with ethanolamine HCl (flow rate 30 μl/min). Nanobodies were injected for 2 minutes at 45 μl/min over the HSA surface to render a Nanobody capture level of approximately 200 RU. […] After each cycle (i.e. before a new Nanobody capture and blood sample injection step) the HSA surfaces were regenerated with a 2 minute injection of HCl (100 mM) at 45 μl/min. Sensorgram processing and data analysis was performed with ProteOn Manager 3.1.0 (Bio-Rad Laboratories, Inc.).
(§2) Also, for the serum albumin binders tested, a kinetic analysis was performed of the binding interaction with the immobilized serum albumin (Langmuir, simultaneous ka/kd model).

Kd | koff | kon | Binder
20 nM | 0.0032 s⁻¹ | 160000 M⁻¹ s⁻¹ | B1
11 nM | 0.0017 s⁻¹ | 160000 M⁻¹ s⁻¹ | B2
22 nM | 0.0026 s⁻¹ | 120000 M⁻¹ s⁻¹ | B3

target: T1, human serum albumin; experiment: as above; remark: another data set of the same source
Procedure: as §1, §2

Kd | koff | kon | Binder
30 nM | 0.0044 s⁻¹ | 150000 M⁻¹ s⁻¹ | B4
30 nM | 0.0022 s⁻¹ | 72000 M⁻¹ s⁻¹ | B5
16 nM | 0.0017 s⁻¹ | 110000 M⁻¹ s⁻¹ | B6

target: mouse serum albumin (mouse, UniProt P07724 25-608); experiment: ProteOn kinetic analysis

Kd | koff | kon | Binder
6.8 nM | 0.0073 s⁻¹ | 1.1e+06 M⁻¹ s⁻¹ | B7
27 nM | 0.02 s⁻¹ | 750000 M⁻¹ s⁻¹ | B8
27 nM | 0.021 s⁻¹ | 770000 M⁻¹ s⁻¹ | B9
21 nM | 0.017 s⁻¹ | 820000 M⁻¹ s⁻¹ | B10

target: guinea pig serum albumin (guinea pig); experiment: ProteOn kinetic analysis

Kd | koff | kon | Binder
5.1 nM | 0.0063 s⁻¹ | 1.2e+06 M⁻¹ s⁻¹ | B7
13 nM | 0.01 s⁻¹ | 790000 M⁻¹ s⁻¹ | B8
13 nM | 0.0098 s⁻¹ | 790000 M⁻¹ s⁻¹ | B9
8.6 nM | 0.0075 s⁻¹ | 870000 M⁻¹ s⁻¹ | B10

target: cyno serum albumin (cyno, UniProt A2V9Z4 25-608); experiment: ProteOn kinetic analysis
Sequence (A2V9Z4 25-608 limits assumed): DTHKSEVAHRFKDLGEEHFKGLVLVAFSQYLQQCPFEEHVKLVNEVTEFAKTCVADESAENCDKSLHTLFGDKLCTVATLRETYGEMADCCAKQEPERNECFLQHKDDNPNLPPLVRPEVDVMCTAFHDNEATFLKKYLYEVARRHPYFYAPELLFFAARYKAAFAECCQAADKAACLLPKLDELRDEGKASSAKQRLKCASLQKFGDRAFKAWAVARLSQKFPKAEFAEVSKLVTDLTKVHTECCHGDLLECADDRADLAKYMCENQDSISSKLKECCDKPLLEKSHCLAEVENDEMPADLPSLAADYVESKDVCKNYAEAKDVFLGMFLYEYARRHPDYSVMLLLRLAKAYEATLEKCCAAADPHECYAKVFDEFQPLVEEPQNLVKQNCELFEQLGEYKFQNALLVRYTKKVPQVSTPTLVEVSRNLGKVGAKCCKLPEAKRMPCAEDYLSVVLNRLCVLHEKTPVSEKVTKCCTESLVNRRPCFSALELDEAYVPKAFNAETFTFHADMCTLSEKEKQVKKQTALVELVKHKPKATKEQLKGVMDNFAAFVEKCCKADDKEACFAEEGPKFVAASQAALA

Kd | koff | kon | Binder
0.89 nM | 0.00081 s⁻¹ | 910000 M⁻¹ s⁻¹ | B7
2.3 nM | 0.0015 s⁻¹ | 640000 M⁻¹ s⁻¹ | B8
2.4 nM | 0.0015 s⁻¹ | 640000 M⁻¹ s⁻¹ | B9
2.1 nM | 0.0014 s⁻¹ | 690000 M⁻¹ s⁻¹ | B10

target: rat serum albumin (rat, UniProt P02770 25-608); experiment: ProteOn kinetic analysis
Sequence (P02770 25-608 limits assumed): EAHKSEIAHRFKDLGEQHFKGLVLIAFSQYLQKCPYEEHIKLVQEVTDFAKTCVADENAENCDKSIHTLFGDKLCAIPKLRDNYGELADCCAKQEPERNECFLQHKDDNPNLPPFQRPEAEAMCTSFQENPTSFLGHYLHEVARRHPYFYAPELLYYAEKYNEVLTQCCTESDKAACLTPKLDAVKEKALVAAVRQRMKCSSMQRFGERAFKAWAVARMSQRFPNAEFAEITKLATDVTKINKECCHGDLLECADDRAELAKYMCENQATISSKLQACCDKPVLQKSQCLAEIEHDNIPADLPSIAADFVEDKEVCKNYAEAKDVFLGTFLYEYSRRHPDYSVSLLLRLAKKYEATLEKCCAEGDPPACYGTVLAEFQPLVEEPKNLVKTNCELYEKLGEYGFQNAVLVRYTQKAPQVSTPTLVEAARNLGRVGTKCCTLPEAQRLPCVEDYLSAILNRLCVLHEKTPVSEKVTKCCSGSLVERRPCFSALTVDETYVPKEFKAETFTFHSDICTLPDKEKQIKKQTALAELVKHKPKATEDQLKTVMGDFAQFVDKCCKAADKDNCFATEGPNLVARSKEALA

Kd | koff | kon | Binder
180 nM | 0.13 s⁻¹ | 710000 M⁻¹ s⁻¹ | B7
540 nM | 0.23 s⁻¹ | 420000 M⁻¹ s⁻¹ | B8
490 nM | 0.21 s⁻¹ | 430000 M⁻¹ s⁻¹ | B9
490 nM | 0.22 s⁻¹ | 450000 M⁻¹ s⁻¹ | B10

target: T1, human serum albumin; experiment: ProteOn kinetic analysis

Kd | koff | kon | Binder
0.83 nM | 0.00084 s⁻¹ | 1e+06 M⁻¹ s⁻¹ | B7
2.1 nM | 0.0014 s⁻¹ | 690000 M⁻¹ s⁻¹ | B8
2.1 nM | 0.0015 s⁻¹ | 710000 M⁻¹ s⁻¹ | B9
2 nM | 0.0014 s⁻¹ | 730000 M⁻¹ s⁻¹ | B10

target: T1, human serum albumin; experiment: ProteOn SPR; Nanobody on immobilized human serum albumin; Langmuir simultaneous ka/kd fit; remark: another data set of the same source
Procedure: as §1, §2

Kd | koff | kon | Binder
7.3 nM | 0.0023 s⁻¹ | 310000 M⁻¹ s⁻¹ | B11
12 nM | 0.0033 s⁻¹ | 280000 M⁻¹ s⁻¹ | B12
7.6 nM | 0.0021 s⁻¹ | 280000 M⁻¹ s⁻¹ | B13

target: T1, human serum albumin; experiment: as above; remark: another data set of the same source
Procedure: as §1, §2

Kd | koff | kon | Binder
3.1 nM | 0.0036 s⁻¹ | 1.2e+06 M⁻¹ s⁻¹ | B14
7.3 nM | 0.0016 s⁻¹ | 220000 M⁻¹ s⁻¹ | B15
7.2 nM | 0.0015 s⁻¹ | 200000 M⁻¹ s⁻¹ | B16

target: T1, human serum albumin; experiment: as above; remark: another data set of the same source
Procedure: as §1, §2

Kd | koff | kon | Binder
8.3 nM | 0.0022 s⁻¹ | 260000 M⁻¹ s⁻¹ | B17
6.5 nM | 0.0018 s⁻¹ | 270000 M⁻¹ s⁻¹ | B18
7.3 nM | 0.0019 s⁻¹ | 260000 M⁻¹ s⁻¹ | B19

target: T1, human serum albumin; experiment: as above; remark: another data set of the same source
Procedure: as §1, §2

Kd | koff | kon | Binder
82 nM | 0.0051 s⁻¹ | 62000 M⁻¹ s⁻¹ | B20
24 nM | 0.0026 s⁻¹ | 110000 M⁻¹ s⁻¹ | B21
